Experimental data from patent publication US20190147972A1, “BIOMOLECULE DESIGN MODEL AND USES THEREOF” (University of Notre Dame du Lac, priority 2016, published 2019).

How the values were obtained:
[1] = target: MART126(27L)-35 pE1A/HLA-A2 (UniProt Q16655); experiment: SPR steady state (Biacore 3000), TCR immobilised, pMHC injected; relative to the unsubstituted ELA peptide
[2] = target: MART126(27L)-35 pT9A/HLA-A2 (UniProt Q16655); experiment: as above
[3] = target: MART126(27L)-35 pE1D/HLA-A2 (UniProt Q16655); experiment: as above
[4] = target: MART126(27L)-35 pE1F/HLA-A2 (UniProt Q16655); experiment: as above
[5] = target: MART126(27L)-35 pI5E/HLA-A2 (UniProt Q16655); experiment: as above
[6] = target: MART126(27L)-35 pG6-Sarc/HLA-A2 (UniProt Q16655); experiment: as above
[7] = target: MART126(27L)-35 pE1Q/HLA-A2 (UniProt Q16655); experiment: as above
[8] = target: MART126(27L)-35 pG6-Sarc/HLA-A2 (UniProt Q16655); experiment: SPR steady state, TCR immobilised, pMHC injected
MART126(27L)-35/HLA-A2 = MART126(27L)-35/HLA-A2 (UniProt Q16655); experiment: SPR steady state (Biacore 3000), TCR immobilised, pMHC injected; relative to wild type
DMF5 TCR = experiment: SPR binding of MART126(27L)-35 peptide variants/HLA-A2 to DMF5 TCR; settings: ELA peptide substitution vs native peptide, SPR steady state, 25° C.
Experimental: Briefly, the TCR a and b chains, the HLA-A2 heavy chain, and b2-microglobulin (b2m) were generated in Escherichia coli as inclusion bodies, which were isolated and denatured in 8 M urea. TCR a and b chains were diluted in TCR refolding buffer (50 mM Tris (pH 8), 2 mM EDTA, 2.5 M urea, 9.6 mM cysteamine, 5.5 mM cystamine, 0.2 mM PMSF) at a 1:1 ratio. HLA-A2 and b2m were diluted in MHC refolding buffer (100 mM Tris (pH 8), 2 mM EDTA, 400 mM L-arginine, 6.3 mM cysteamine, 3.7 mM cystamine, 0.2 mM PMSF) at a 1:1 ratio in the presence of excess peptide. TCR and pMHC complexes were incubated for 24 h at 4° C. Afterward, complexes were desalted by dialysis at 4° C. and room temperature respectively, then purified by anion exchange followed by size-exclusion chromatography. Refolded protein absorptions at 280 nm were measured spectroscopically and concentrations determined with appropriate extinction coefficients. Mutations in TCR a and b chains were generated by whole-plasmid mutagenesis and confirmed by sequencing. Peptides were synthesized and purified commercially.
Surface plasmon resonance: Surface plasmon resonance experiments were performed with a Biacore 3000 instrument using CMS sensor chips as previously described^15. In all studies, TCR was immobilized to the sensor chip via standard amine coupling and pMHC complex was injected as analyte. Studies were performed at 25° C. in 20 mM HEPES (pH 7.4), 150 mM NaCl, 0.005% Nonidet P-20. All studies were steady-state experiments measuring RU vs. concentration of injected analyte, and were performed with TCRs coupled onto the sensor chip at 400-2000 response units. Injected pMHC spanned a concentration range of 0.1-150 μM at flow rates of 5 μl/min. Data were processed with BioEvaluation 4.1 and fit using a 1:1 binding model utilizing MATLAB 2015b.
Next, eight MART126(27L)-35 peptide variants with a broad range of complex scores were selected for experimental testing with DMF5. A peptide was also examined with a non-standard sarcosine (N-methyl glycine) substituted for Gly6 of the peptide to help test the implications of treating structured water explicitly in the DMF5 interface as discussed above and shown in FIG. 5.

In the case of DMF5 TCR (wild type, soluble), the ΔΔG° [1] is reported as 0.06 kcal/mol, the ΔΔG° [2] is reported as 1.6 kcal/mol and the ΔΔG° [3] is reported as 1.3 kcal/mol. The ΔΔG° [4] was 2.26 kcal/mol, the ΔΔG° [5] was 3.07 kcal/mol and the ΔΔG° [6] was -0.58 kcal/mol. For the same substance, the ΔΔG° [7] was 1 kcal/mol and the fold affinity enhancement over the unsubstituted peptide [8] was 3 fold.
DMF5 TCR T54αI was tested, and the ΔΔG° (MART126(27L)-35/HLA-A2) was 0.33 kcal/mol.
For “PE1Q: MART126(27L)-35 (ELA) peptide with E1Q substitution, presented by HLA-A2 (QLAGIGILTV; MART-1 26-35 peptide; UniProt Q16655 26-35, looked up, variant A27L E26Q)”, the “ΔΔG°” value (DMF5 TCR) was 1.0 kcal/mol.
“pE1D: MART126(27L)-35 (ELA) peptide with E1D substitution, presented by HLA-A2 (DLAGIGILTV; MART-1 26-35 peptide; UniProt Q16655 26-35, looked up, variant A27L E26D)” was tested, and the “ΔΔG°” value (DMF5 TCR) was 1.3 kcal/mol.
In the case of “pE1F: MART126(27L)-35 (ELA) peptide with E1F substitution, presented by HLA-A2 (FLAGIGILTV; MART-1 26-35 peptide; UniProt Q16655 26-35, looked up, variant A27L E26F)”, the “ΔΔG°” value (DMF5 TCR) is reported as 2.26 kcal/mol.
“pI5E: MART126(27L)-35 (ELA) peptide with I5E substitution, presented by HLA-A2 (ELAGEGILTV; MART-1 26-35 peptide; UniProt Q16655 26-35, looked up, variant A27L I30E)” was tested, and the “ΔΔG°” value (DMF5 TCR) was 3.07 kcal/mol.
For “pT9W: MART126(27L)-35 (ELA) peptide with T9W substitution, presented by HLA-A2 (ELAGIGILWV; MART-1 26-35 peptide; UniProt Q16655 26-35, looked up, variant A27L T34W)”, the “ΔΔG°” value (DMF5 TCR) was greater than 3 kcal/mol.
